Test results published in patent US20140274782A1, “AFFINITY REAGENTS AND METHODS FOR DETECTION, PURIFICATION, AND PROTEOMIC ANALYSIS OF METHYLATED PROTEINS” (The Board of Trustees of the Leland Stanford Junior …, priority 2013, published 2014).

B1: U2SURP (protein, UniProt O15042 2-1029, looked up)
U2 snRNP-associated SURP …: ADKTPGGSQKASSKTRSSDVHSSGSSDAHMDASGPSDSDMPSRTRPKSPRKHNYRNESARESLCDSPHQNLSRPLLENKLKAFSIGKMSTAKRTLSKKEQEELKKKEDEKAAAEIYEEFLAAFEGSDGNKVKTFVRGGVVNAAKEEHETDEKRGKIYKPSSRFADQKNPPNQSSNERPPSLLVIETKKPPLKKGEKEKKKSNLELFKEELKQIQEERDERHKTKGRLSRFEPPQSDSDGQRRSMDAPSRRNRSSGVLDDYAPGSHDVGDPSTTNLYLGNINPQMNEEMLCQEFGRFGPLASVKIMWPRTDEERARERNCGFVAFMNRRDAERALKNLNGKMIMSFEMKLGWGKAVPIPPHPIYIPPSMMEHTLPPPPSGLPFNAQPRERLKNPNAPMLPPPKNKEDFEKTLSQAIVKVVIPTERNLLALIHRMIEFVVREGPMFEAMIMNREINNPMFRFLFENQTPAHVYYRWKLYSILQGDSPTKWRTEDFRMFKNGSFWRPPPLNPYLHGMSEEQETEAFVEEPSKKGALKEEQRDKLEEILRGLTPRKNDIGDAMVFCLNNAEAAEEIVDCITESLSILKTPLPKKIARLYLVSDVLYNSSAKVANASYYRKFFETKLCQIFSDLNATYRTIQGHLQSENFKQRVMTCFRAWEDWAIYPEPFLIKLQNIFLGLVNIIEEKETEDVPDDLDGAPIEEELDGAPLEDVDGIPIDATPIDDLDGVPIKSLDDDLDGVPLDATEDSKKNEPIFKVAPSKWEAVDESELEAQAVTTSKWELFDQHEESEEEENQNQEEESEDEEDTQSSKSEEHHLYSNPIKEEMTESKFSKYSEMSEEKRAKLREIELKVMKFQDELESGKRPKKPGQSFQEQVEHYRDKLLQREKEKELERERERDKKDKEKLESRSKDKKEKDECTPTRKERKRRHSTSPSPSRSSSGRRVKSPSPKSERSERSERSHKESSRSRSSHKDSPRDVSKKAKRSPSGSRTPKRSRRSRSRSPKKSGKKSRSQSRSPHRSHKKSKKNKH
B2: CACYBP (protein, UniProt Q9HB71 2-228, looked up)
Calcyclin-binding protein: ASEELQKDLEEVKVLLEKATRKRVRDALTAEKSKIETEIKNKMQQKSQKKAELLDNEKPAAVVAPITTGYTVKISNYGWDQSDKFVKIYITLTGVHQVPTENVQVHFTERSFDLLVKNLNGKSYSMIVNNLLKPISVEGSSKKVKTDTVLILCRKKVENTRWDYLTQVEKECKEKEKPSYDTETDPSEGLMNVLKKIYEDGDDDMKRTINKAWVESREKQAKGDTEF
B3: PRDX6 (protein, UniProt P30041 2-224, looked up)
Peroxiredoxin-6: PGGLLLGDVAPNFEANTTVGRIRFHDFLGDSWGILFSHPRDFTPVCTTELGRAAKLAPEFAKRNVKLIALSIDSVEDHLAWSKDINAYNCEEPTEKLPFPIIDDRNRELAILLGMLDPAEKDEKGMPVTARVVFVFGPDKKLKLSILYPATTGRNFDEILRVVISLQLTAEKRVATPVDWKDGDSVMVLPTIPEEEAKKLFPKGVFTKELPSGKKYLRYTPQP
B4: SEC24A (protein, UniProt O95486 1-1093, looked up)
Protein transport protein …: MSQPGIPASGGAPASLQAQNGAALASGSPYTNGPVQNALLSSQESVSQGYNFQLPGSYPHPIPAKTLNPVSGQSNYGGSQGSGQTLNRPPVASNPVTPSLHSGPAPRMPLPASQNPATTPMPSSSFLPEANLPPPLNWQYNYPSTASQTNHCPRASSQPTVSGNTSLTTNHQYVSSGYPSLQNSFIKSGPSVPPLVNPPLPTTFQPGAPHGPPPAGGPPPVRALTPLTSSYRDVPQPLFNSAVNQEGITSNTNNGSMVVHSSYDEIEGGGLLATPQLTNKNPKMSRSVGYSYPSLPPGYQNTTPPGATGVPPSSLNYPSGPQAFTQTPLGANHLTTSMSGLSLQPEGLRVVNLLQERNMLPSTPLKPPVPNLHEDIQKLNCNPELFRCTLTSIPQTQALLNKAKLPLGLLLHPFKDLVQLPVVTSSTIVRCRSCRTYINPFVSFLDQRRWKCNLCYRVNDVPEEFLYNPLTRVYGEPHRRPEVQNATIEFMAPSEYMLRPPQPPVYLFVFDVSHNAVETGYLNSVCQSLLDNLDLLPGNTRTKIGFITFDSTIHFYGLQESLSQPQMLIVSDIEDVFIPMPENLLVNLNESKELVQDLLKTLPQMFTKTLETQSALGPALQAAFKLMSPTGGRMSVFQTQLPTLGVGALKPREEPNHRSSAKDIHMTPSTDFYKKLALDCSGQQVAVDLFLLSGQYSDLASLGCISRYSAGSVYYYPSYHHQHNPVQVQKLQKELQRYLTRKIGFEAVMRIRCTKGLSIHTFHGNFFVRSTDLLSLPNVNPDAGYAVQMSVEESLTDTQLVSFQSALLYTSSKGERRIRVHTLCLPVVSTLNDVFLGADVQAISGLLANMAVDRSMTASLSDARDALVNAVIDSLSAYRSSVLSNQQPGLMVPFSLRLFPLFVLALLKQKSFQTGTNARLDERIFAMCQVKNQPLVYLMLTTHPSLYRVDNLSDEGALNISDRTIPQPPILQLSVEKLSRDGAFLMDAGSVLMLWVGKNCTQNFLSQVLGVQNYASIPQPMTDLPELDTPESARIIAFISWLREQRPFFPILYVIRDESPMKANFLQNMIEDRTESALSYYEFLLHIQQQVNK

Legend:
G9a and GLP = biological target: T1, G9a and GLP (Homo sapiens, UniProt Q96KQ7+Q9H9B1); experiment: Triple SILAC pull-down after UNC0638 treatment of 293T cells, DMSO/UNC0638 ratio of protein captured by 3×MBT; format: cell-based; set-up: cells were treated for 24 hours with UNC0638 at 2.5 μM or DMSO vehicle control; endogenous in cells; host or cells: HEK 293T; settings: for Relative to UNC0638 UNC Heavy / Relative to UNC0638 UNC Light: SILAC ratio DMSO/UNC0638 of protein pulled down with 3xMBT; for Relative to UNC0638 UNC Heavy: UNC0638 in heavy SILAC media; for Relative to UNC0638 UNC Light: UNC0638 in light SILAC media; for Relative to UNC0638 Average: average of UNC Light and UNC Heavy experiments;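 on all read-outs here: mass spectrometry (Q-Exactive) SILAC quantitation, DMSO/UNC0638 ratio computed after subtracting 3×MBTD355N mutant pull-down background, only proteins with at least twofold 3×MBT over mutant signal considered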
T1 sequence (Q96KQ7 2-1210 limits assumed): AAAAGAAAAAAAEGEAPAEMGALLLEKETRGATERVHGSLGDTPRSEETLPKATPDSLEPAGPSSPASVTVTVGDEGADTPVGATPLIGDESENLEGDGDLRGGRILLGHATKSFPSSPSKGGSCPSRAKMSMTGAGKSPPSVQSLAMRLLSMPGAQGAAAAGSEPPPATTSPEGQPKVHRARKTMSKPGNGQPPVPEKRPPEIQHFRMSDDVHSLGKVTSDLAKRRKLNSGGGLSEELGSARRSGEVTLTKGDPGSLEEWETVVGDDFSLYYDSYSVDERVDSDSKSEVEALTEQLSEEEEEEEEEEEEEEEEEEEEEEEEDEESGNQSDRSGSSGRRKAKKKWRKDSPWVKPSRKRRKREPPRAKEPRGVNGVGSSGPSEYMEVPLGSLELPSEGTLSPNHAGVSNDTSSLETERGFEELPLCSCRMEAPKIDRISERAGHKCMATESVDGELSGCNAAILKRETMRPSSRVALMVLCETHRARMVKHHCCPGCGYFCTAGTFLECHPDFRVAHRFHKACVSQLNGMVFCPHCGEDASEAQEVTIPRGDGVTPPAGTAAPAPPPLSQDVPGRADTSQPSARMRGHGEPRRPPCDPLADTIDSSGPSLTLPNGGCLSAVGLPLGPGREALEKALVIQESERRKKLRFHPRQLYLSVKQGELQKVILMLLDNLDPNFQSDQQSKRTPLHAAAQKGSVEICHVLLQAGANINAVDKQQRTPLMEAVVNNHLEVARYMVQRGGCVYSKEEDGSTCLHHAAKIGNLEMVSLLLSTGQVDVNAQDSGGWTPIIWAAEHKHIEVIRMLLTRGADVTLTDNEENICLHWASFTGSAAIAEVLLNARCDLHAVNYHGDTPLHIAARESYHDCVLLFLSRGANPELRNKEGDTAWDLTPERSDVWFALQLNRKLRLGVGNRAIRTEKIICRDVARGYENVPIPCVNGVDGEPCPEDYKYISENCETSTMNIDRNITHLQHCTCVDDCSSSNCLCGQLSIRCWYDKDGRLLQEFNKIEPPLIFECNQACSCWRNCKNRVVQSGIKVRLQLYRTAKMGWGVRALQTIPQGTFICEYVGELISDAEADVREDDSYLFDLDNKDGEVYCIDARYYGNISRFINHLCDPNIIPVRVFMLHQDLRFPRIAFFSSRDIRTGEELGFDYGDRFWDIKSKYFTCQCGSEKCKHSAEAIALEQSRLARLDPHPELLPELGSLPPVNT
T1 sequence (Q9H9B1 2-1298 limits assumed): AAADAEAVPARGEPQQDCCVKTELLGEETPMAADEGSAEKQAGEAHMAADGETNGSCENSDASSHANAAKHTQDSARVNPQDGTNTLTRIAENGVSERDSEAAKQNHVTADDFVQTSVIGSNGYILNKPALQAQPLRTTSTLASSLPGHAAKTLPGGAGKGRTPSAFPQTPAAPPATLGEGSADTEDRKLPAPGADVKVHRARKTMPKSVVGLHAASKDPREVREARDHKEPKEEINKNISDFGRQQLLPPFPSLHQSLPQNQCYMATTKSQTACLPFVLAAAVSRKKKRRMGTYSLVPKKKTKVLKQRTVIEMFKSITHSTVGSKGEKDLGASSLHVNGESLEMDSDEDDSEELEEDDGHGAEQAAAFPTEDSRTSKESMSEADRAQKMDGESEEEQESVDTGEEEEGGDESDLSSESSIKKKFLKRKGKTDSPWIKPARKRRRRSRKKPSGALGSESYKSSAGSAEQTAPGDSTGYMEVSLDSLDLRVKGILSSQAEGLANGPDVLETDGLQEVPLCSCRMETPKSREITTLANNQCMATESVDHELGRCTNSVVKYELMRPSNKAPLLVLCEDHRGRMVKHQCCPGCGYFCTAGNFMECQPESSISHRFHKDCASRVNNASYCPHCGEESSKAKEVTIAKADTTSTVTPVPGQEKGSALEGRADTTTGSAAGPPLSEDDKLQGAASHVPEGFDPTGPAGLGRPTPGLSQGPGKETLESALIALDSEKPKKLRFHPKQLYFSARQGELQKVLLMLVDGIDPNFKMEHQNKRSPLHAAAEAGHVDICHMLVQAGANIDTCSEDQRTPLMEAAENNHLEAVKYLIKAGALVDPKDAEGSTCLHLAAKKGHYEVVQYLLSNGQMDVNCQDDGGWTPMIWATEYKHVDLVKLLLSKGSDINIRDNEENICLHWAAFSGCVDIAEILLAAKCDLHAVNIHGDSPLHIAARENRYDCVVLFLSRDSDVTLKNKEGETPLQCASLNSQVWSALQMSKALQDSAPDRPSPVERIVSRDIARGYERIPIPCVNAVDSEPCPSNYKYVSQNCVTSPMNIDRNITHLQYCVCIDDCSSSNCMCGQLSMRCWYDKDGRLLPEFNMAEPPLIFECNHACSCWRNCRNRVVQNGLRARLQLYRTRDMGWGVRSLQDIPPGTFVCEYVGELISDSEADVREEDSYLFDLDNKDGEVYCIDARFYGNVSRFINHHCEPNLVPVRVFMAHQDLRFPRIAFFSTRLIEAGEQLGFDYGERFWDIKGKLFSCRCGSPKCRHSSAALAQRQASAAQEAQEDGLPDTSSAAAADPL
Description: For UNC0638 treatments cells were treated for 24 hours with UNC0638 at 2.5 μM or DMSO vehicle control. One experiment treated cells in light media with UNC0638, the other treated cells in heavy media. Both experiments included cells in medium media treated with DMSO for negative control pull-down with 3×MBTD355N.
UNC0638 treatment experiments used a Q-Exactive mass spectrometer (ThermoFisher Scientific). A 25 cm HPLC column with 3 μm Reliasil (Orochem) was used to separate peptides over a 4 hour gradient from 0 to 75% acetonitrile. Ions were generated using a custom nanospray source flowing at 250 nL/minute. Mass spectrometry settings were 70,000 MS1 resolution, data dependent selection of up to 20 precursor ions per cycle, dynamic exclusion of 30 seconds and isolation window of 2 m/z.
For UNC0638 experiments the treated vs. untreated ratio was determined by subtracting the value from 3×MBTD355N prior to dividing values from the light and heavy channels. Only proteins showing a two-fold signal to background ratio (3×MBT/3×MBTD355N) were evaluated as potential G9a/GLP substrates.

3×MBT domain of L3MBTL1 = experiment: Triple SILAC pull-down, 3xMBT/3xMBTD355N ratio (cytoplasmic, nuclear and chromatin fractions of 293T cells); format: binding, human; settings: SILAC ratio, pull-down 3xMBT vs 3xMBTD355N; for 3xMBT/D355N UNC Heavy: experiment with UNC0638 in heavy SILAC media; for 3xMBT/D355N UNC Light: experiment with UNC0638 in light SILAC media;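 on all read-outs here: proteins quantified with MaxQuant, requiring at least two unique peptides and quantification in both label directions, normalized to the mean of proteins from a digested loading control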

| Molecule | Relative to UNC0638 UNC Heavy (G9a and GLP) [log base 2] | Relative to UNC0638 UNC Light (G9a and GLP) [log base 2] | Relative to UNC0638 Average (G9a and GLP) [log base 2] | 3xMBT/D355N UNC Heavy (3×MBT domain of L3MBTL1) [log base 2] | 3xMBT/D355N UNC Light (3×MBT domain of L3MBTL1) [log base 2] |
| --- | --- | --- | --- | --- | --- |
| B1 | 0.23 | 0.27 | 0.25 | 3.19 | 2.58 |
| B2 | 0.29 | 0.20 | 0.25 | 1.46 | 1.48 |
| B3 | 0.27 | 0.23 | 0.25 | 2.01 | 2.00 |
| B4 | 0.60 | −0.11 | 0.24 | 1.94 | 2.29 |
